In paper PMC4582940:

Assays:
[1] = biological target: c-Met recombinant chimera (R&D Systems) (UniProt P08581); experiment: SPR; c-Met chimera amine-coupled to a CM5 chip (200-1000 RU), Biacore 2000, 25 °C, HBS-EP pH 7.4, 5 uL/min; CSF diluted 1:1 in PBS flowed over; samples: septic community-acquired meningitis (n = 22)
[2] = biological target: c-Met recombinant chimera (R&D Systems) (UniProt P08581); experiment: SPR; c-Met chimera amine-coupled to a CM5 chip (200-1000 RU), Biacore 2000, 25 °C, HBS-EP pH 7.4, 5 uL/min; CSF diluted 1:1 in PBS flowed over; samples: septic nosocomial meningitis (n = 33)

UniProt P08581, sequence (P08581 25-932, change not shown): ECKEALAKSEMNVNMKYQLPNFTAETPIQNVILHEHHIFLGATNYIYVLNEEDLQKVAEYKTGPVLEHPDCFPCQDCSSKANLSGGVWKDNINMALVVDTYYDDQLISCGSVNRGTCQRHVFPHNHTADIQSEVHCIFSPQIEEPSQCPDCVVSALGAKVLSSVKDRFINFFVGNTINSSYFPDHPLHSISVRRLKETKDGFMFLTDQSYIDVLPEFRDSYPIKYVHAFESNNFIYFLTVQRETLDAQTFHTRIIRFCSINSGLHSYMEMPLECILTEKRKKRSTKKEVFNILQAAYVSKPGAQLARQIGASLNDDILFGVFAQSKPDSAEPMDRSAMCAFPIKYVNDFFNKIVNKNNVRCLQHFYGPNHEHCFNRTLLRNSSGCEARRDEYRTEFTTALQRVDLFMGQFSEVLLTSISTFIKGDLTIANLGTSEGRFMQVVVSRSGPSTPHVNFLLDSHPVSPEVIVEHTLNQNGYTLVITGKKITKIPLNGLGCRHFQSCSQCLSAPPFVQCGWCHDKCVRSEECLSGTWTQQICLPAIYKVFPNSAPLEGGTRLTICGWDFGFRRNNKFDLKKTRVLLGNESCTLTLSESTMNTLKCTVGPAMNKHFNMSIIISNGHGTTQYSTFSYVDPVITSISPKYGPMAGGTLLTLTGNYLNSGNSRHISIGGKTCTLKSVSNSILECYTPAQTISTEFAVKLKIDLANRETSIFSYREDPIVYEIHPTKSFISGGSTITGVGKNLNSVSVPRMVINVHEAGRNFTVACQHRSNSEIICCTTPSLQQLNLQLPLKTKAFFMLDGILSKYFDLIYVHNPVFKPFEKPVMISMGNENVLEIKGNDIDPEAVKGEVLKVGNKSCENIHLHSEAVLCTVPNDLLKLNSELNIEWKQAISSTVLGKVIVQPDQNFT

Substance: Hepatocyte growth factor (CSF-derived) (ligand)
- C-Met binding (RU), median of the group [1]: 56 RU
- C-Met binding (RU), median of the group [2]: 27.3 RU
